Kd data for five molecules are collected here from publication PMC7589778 (Viruses, 2020).

B1: Human mitochondrial LysRS with a C-terminal HA-tag (enzyme)
chain: not shown
modifications: homodimer; mature mitochondrial form (19 specific + 576 shared residues); HA-tag left out

What all share (experiment): AlphaScreen or HTRF
Details in all cases: both partners purified
(In general: In Alpha technology, singlet oxygen from a donor bead excites a nearby acceptor bead.)

For assay [1], the target named is T1, Full-length integrase from HIV-1 with a C-terminal His-tag (HIV-1).
T1 construct: source: E. coli BL21(DE3), purified (Ni-NTA, Mono S); not shown: His6, C-terminal, kept

The target in assay [2] is Human mitochondrial LysRS with a C-terminal HA-tag (human, UniProt Q15046-2 1-625).
Assay [3] concerns the target B1.

Broadly, the Kd is the constant that tells how readily two partners part at equilibrium.

For the molecule B1, the Kd in assay [1] was 2.6 nM.

B2: HIV-1 integrase catalytic core domain (deletion of the NTD and the CTD), C-terminal His-tag (domain or fragment)
chain: MHGQVDCSPGIWQLDCTHLEGKVILVAVHVASGYIEAEVIPAETGQETAYFLLKLAGRWPVKTVHTDNGSNFTSTTVKAACWWAGIKQEFGIPYNPQSQGVIESMNKELKKIIGQVRDQAEHLKTAVQMAVFIHNFKRKGGIGGYSAGERIVDIIATDIQTKE
modifications: homodimer; mature mitochondrial form (19 specific + 576 shared residues); HA-tag left out
In the case of B2, in assay [2], the Kd was > 400 nM.

B3: C-terminal domain of HIV-1 integrase starting at residue 213, C-terminal His-tag (domain or fragment)
chain: LQKQITKIQNFRVYYRDSRDPVWKGPAKLLWKGEGAVVIQDNSDIKVVPRRKAKIIRDYGKQMAGDDCVASRQDED
modifications: homodimer; mature mitochondrial form (19 specific + 576 shared residues); HA-tag left out
As for B3, in assay [2], the Kd was 190 nM.

B4: IN-CTD222 with a deletion of 15 C-terminal residues, C-terminal His-tag (domain or fragment)
chain: NFRVYYRDSRDPVWKGPAKLLWKGEGAVVIQDNSDIKVVPRRKAKIIRDYGK
notes: source: E. coli BL21(DE3), purified (Ni-NTA, Mono S); not shown: His6, C-terminal, kept
Turning to B4, the Kd in assay [3] came to 142 nM.

B5: HIV-1 integrase with a deletion of the NTD, C-terminal His-tag (domain or fragment)
chain: MHGQVDCSPGIWQLDCTHLEGKVILVAVHVASGYIEAEVIPAETGQETAYFLLKLAGRWPVKTVHTDNGSNFTSTTVKAACWWAGIKQEFGIPYNPQSQGVIESMNKELKKIIGQVRDQAEHLKTAVQMAVFIHNFKRKGGIGGYSAGERIVDIIATDIQTKELQKQITKIQNFRVYYRDSRDPVWKGPAKLLWKGEGAVVIQDNSDIKVVPRRKAKIIRDYGKQMAGDDCVASRQDED
modifications: homodimer; mature mitochondrial form (19 specific + 576 shared residues); HA-tag left out
B5 displayed a Kd in assay [2] of 3 nM.
